Test results taken from article PMC4571948, “Identification of a Novel Sequence Motif Recognized by the Ankyrin Repeat Domain of zDHHC17/13 S-Acyltransferases*” (The Journal of Biological Chemistry, 2015).

Biological target: T1, GST-17NAnk (GST-tagged N-terminal (1–305) zDHHC17) (murine, UniProt Q80TN5 1-305)
T1 construct: zDHHC17, murine cDNA, N-terminal residues 1–305 with the AR domain; also called GST-17Ank; GST-tagged AR-containing cytosolic region of zDHHC17; source: E. coli BL21(DE3)pLysS, purified (glutathione resin)
T1 sequence (looked up): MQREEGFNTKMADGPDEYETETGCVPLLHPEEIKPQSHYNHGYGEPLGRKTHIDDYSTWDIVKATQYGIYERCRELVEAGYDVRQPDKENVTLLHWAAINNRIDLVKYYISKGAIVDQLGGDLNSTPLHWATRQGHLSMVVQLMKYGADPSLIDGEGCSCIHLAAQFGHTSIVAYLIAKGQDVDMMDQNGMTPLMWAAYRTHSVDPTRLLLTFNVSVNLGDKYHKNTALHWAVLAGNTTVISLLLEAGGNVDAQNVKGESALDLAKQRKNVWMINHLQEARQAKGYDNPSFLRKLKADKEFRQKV
Assay: pull-down; 20 μg GST-17NAnk (or GST) on 10 μl glutathione-Sepharose, 20 μg His6-CSPα or His6-SNAP25b(93–206) (and competing amounts of the other), overnight at 4 °C, PBS washes, Coomassie staining
Conditions: both partners purified

B1: His6-CSPα (natural protein, bovine, UniProt Q29455 1-198, looked up)
chain: MADQRQRSLSTSGESLYHVLGLDKNATSDDIKKSYRKLALKYHPDKNPDNPEAADKFKEINNAHAILTDATKRNIYDKYGSLGLYVAEQFGEENVNTYFVLSSWWAKALFIFCGLLTCCYCCCCLCCCFNCCCGKCKPKAPEGEETEFYVSPEDLEAQLQSDEREAADTPIVIQPASATETTQLTADSHPSYHTDGFN
notes: CSPα, bovine cDNA; also called His-tagged CSPα; source: E. coli BL21(DE3)pLysS, purified (Ni2+-NTA)
B1: binds.
